The sequences below were run on Escherichia coli TOP10 (assay: shrunken log2 fold change of peptide-encoding DNA abundance (4.5 h post-induction vs induction); higher = less antimicrobial activity (less host growth inhibition)). Settings: time post-induction: 4.5 h; library: site-saturation at positions 5, 18, 19, 20.
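Also: peptides expressed intracellularly from a pBAD plasmid library in pooled LB shake-flask culture, induced with 0.3% L-arabinose, DNA abundance read by NGS, three biological replicates, DESeq2 with apeglm shrinkage.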

Row | Sequence | shrunken log2 fold change
1 | RRIRMRPPRLPRPRPRPRNGPRP | 0.833
2 | RRIRDRPPRLPRPRPRPRYNPRP | -0.513
3 | RRIRGRPPRLPRPRPRPAILPRP | -0.0316
4 | RRIRTRPPRLPRPRPRPKHYPRP | -0.339
5 | RRIRDRPPRLPRPRPRPEVVPRP | -0.00213
6 | RRIRRRPPRLPRPRPRPEENPRP | 0.157
7 | RRIRRRPPRLPRPRPRPLRDPRP | 1.05
8 | RRIRGRPPRLPRPRPRPEPQPRP | 1.41
9 | RRIRTRPPRLPRPRPRPYTAPRP | -0.389
10 | RRIRKRPPRLPRPRPRPHWFPRP | 0.096
11 | RRIRGRPPRLPRPRPRPMDPPRP | 0.00995
12 | RRIRCRPPRLPRPRPRPWSDPRP | -0.324
13 | RRIRERPPRLPRPRPRPGNGPRP | -0.0693
14 | RRIRARPPRLPRPRPRPLYEPRP | 0.000796
15 | RRIRMRPPRLPRPRPRPARWPRP | 1.49
16 | RRIRLRPPRLPRPRPRPHCDPRP | 0.00399
17 | RRIRTRPPRLPRPRPRPFKPPRP | -0.0194
18 | RRIRYRPPRLPRPRPRPVNHPRP | -0.073
19 | RRIRGRPPRLPRPRPRPIFYPRP | 0.0354
20 | RRIRTRPPRLPRPRPRPCGGPRP | 0.169

Row | Sequence | shrunken log2 fold change
21 | RRIRARPPRLPRPRPRPRHPPRP | 0.383
22 | RRIRMRPPRLPRPRPRPRIQPRP | 0.203
23 | RRIRGRPPRLPRPRPRPNDNPRP | 0.19
24 | RRIRHRPPRLPRPRPRPQYNPRP | -0.655
25 | RRIRFRPPRLPRPRPRPYDPPRP | -0.0102
26 | RRIRPRPPRLPRPRPRPIHPPRP | 0.172
27 | RRIRARPPRLPRPRPRPHPYPRP | -0.484
28 | RRIRTRPPRLPRPRPRPSFFPRP | -0.256
29 | RRIRFRPPRLPRPRPRPQPYPRP | -0.34
30 | RRIRIRPPRLPRPRPRPVESPRP | -0.0832
31 | RRIRDRPPRLPRPRPRPEHNPRP | 0.14
32 | RRIRGRPPRLPRPRPRPRWLPRP | 0.527
33 | RRIRPRPPRLPRPRPRPFPMPRP | -0.175
34 | RRIRARPPRLPRPRPRPHGRPRP | 0.0226
35 | RRIRDRPPRLPRPRPRPRHKPRP | 0.227
36 | RRIRHRPPRLPRPRPRPYGGPRP | -0.91
37 | RRIRERPPRLPRPRPRPHKAPRP | -0.0142
38 | RRIRERPPRLPRPRPRPWPYPRP | 0.00489
39 | RRIRYRPPRLPRPRPRPHLRPRP | -0.485
40 | RRIRYRPPRLPRPRPRPSPQPRP | -0.195

Row | Sequence | shrunken log2 fold change
41 | RRIRQRPPRLPRPRPRPGCYPRP | -0.451
42 | RRIRKRPPRLPRPRPRPRAMPRP | -0.107
43 | RRIRYRPPRLPRPRPRPRKIPRP | -0.483
44 | RRIRVRPPRLPRPRPRPFHKPRP | -0.385
45 | RRIRHRPPRLPRPRPRPQCLPRP | -0.0192
46 | RRIRQRPPRLPRPRPRPASLPRP | -0.232
47 | RRIRPRPPRLPRPRPRPHEHPRP | 0.0125
48 | RRIRKRPPRLPRPRPRPFRAPRP | 0.201
49 | RRIRWRPPRLPRPRPRPWLIPRP | 0.112
50 | RRIRQRPPRLPRPRPRPIETPRP | 0.00824
51 | RRIRSRPPRLPRPRPRPFQPPRP | -0.133
52 | RRIRMRPPRLPRPRPRPFQNPRP | 2.76
53 | RRIRNRPPRLPRPRPRPLVHPRP | 0.0443
54 | RRIRRRPPRLPRPRPRPMRKPRP | 0.58
55 | RRIRNRPPRLPRPRPRPCEFPRP | -0.398
56 | RRIRMRPPRLPRPRPRPQLLPRP | 0.0491
57 | RRIRLRPPRLPRPRPRPIFPPRP | 0.0478
58 | RRIRPRPPRLPRPRPRPEESPRP | -0.0202
59 | RRIRLRPPRLPRPRPRPPDSPRP | 0.0353
60 | RRIRQRPPRLPRPRPRPDDFPRP | -0.0929

Source: the supplement of paper PMC9112550, “Optimization of the antimicrobial peptide Bac7 by deep mutational scanning” (BMC Biology, 2022)
